Results on 2 molecules are retold here after publication PMC7545097, “Mapping the native interaction surfaces of PREP1 with PBX1 by cross-linking mass-spectrometry and mutagenesis” (Scientific Reports, 2020).

The Kd is the free concentration of one partner at which half of the binding sites on the other are occupied at equilibrium, for simple one-to-one binding.

Holding throughout (settings): both partners purified
In one experiment the target is T1, PREP1_(1-344) (UniProt P55347 1-344).
T1 construct: PREP1 (PKNOX1), residues 1-344, lacking the C-terminal region; Second cassette of the di-cistronic vector pGEX-6P-2RBS; also called PKNOX1; C-terminal truncated PREP1; source: E. coli, co-expressed with PBX1(1-308), purified as a complex (cation exchange, SEC on Superose 6)
T1 sequence (looked up): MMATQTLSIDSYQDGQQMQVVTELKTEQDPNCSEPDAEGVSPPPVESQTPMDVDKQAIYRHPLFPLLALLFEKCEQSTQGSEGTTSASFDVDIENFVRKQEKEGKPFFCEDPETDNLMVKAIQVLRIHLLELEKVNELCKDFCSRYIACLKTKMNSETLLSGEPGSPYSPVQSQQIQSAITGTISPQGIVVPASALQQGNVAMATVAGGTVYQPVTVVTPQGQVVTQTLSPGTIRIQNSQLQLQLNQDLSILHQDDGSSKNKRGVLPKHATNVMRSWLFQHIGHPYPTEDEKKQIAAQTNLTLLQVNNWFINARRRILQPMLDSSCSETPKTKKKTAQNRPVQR
In words: cross-linking; purified complex at 1 mg/ml in 50 mM borate-buffered saline, 1 mM BS^3, 1 h at room temperature; SDS-PAGE, in-gel Glu-C and trypsin digestion, nLC-ESI-MS/MS, pLink 2; two biological replicates.

For experiment [1], the target named is T2, full-length MEIS1 (MEIS1_(1-390)) in the purified MEIS1-PBX1 complex (UniProt O00470 1-390).
T2 construct: MEIS1, full length, residues 1-390; source: E. coli, purified as a complex with PBX1(1-308)
T2 sequence (looked up): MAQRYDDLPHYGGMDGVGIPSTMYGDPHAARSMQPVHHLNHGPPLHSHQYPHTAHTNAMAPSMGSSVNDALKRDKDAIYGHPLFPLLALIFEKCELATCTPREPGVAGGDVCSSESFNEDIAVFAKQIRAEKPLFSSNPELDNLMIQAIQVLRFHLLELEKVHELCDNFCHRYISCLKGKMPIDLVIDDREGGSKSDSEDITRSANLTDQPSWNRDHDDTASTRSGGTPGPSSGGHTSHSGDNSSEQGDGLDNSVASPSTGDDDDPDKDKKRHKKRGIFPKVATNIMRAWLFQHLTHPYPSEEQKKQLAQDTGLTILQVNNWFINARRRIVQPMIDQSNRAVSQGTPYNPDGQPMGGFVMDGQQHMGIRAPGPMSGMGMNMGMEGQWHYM
Described as above.

In experiment [2] the target is T3, PBX1_(1-430), wild-type recombinant (human, UniProt P40424 1-430).
T3 construct: also called wild-type PBX1; purified recombinant human PBX1; source: E. coli, purified
T3 sequence (looked up): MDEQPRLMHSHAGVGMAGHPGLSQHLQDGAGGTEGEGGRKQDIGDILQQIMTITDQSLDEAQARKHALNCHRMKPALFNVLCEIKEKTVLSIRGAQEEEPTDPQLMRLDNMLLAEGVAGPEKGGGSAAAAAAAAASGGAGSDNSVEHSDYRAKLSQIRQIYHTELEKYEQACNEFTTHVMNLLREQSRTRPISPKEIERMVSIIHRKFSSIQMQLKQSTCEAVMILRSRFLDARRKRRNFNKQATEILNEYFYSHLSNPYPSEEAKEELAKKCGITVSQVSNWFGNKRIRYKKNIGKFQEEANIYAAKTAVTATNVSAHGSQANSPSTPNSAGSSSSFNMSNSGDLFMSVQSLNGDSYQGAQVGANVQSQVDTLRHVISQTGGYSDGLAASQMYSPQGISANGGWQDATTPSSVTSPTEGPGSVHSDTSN
As to the kind of experiment: ELISA; PBX1 wild-type coated at 0.1 µM in 100 mM Tris–HCl pH 7.5; GST-fused proteins at 0.23 nM to 0.5 µM, 1 h at 37 °C; anti-GST detection; GST signal subtracted; one-site binding model.

B1: PBX1_(1-308) (domain or fragment, human, UniProt P40424 1-308, looked up)
chain: MDEQPRLMHSHAGVGMAGHPGLSQHLQDGAGGTEGEGGRKQDIGDILQQIMTITDQSLDEAQARKHALNCHRMKPALFNVLCEIKEKTVLSIRGAQEEEPTDPQLMRLDNMLLAEGVAGPEKGGGSAAAAAAAAASGGAGSDNSVEHSDYRAKLSQIRQIYHTELEKYEQACNEFTTHVMNLLREQSRTRPISPKEIERMVSIIHRKFSSIQMQLKQSTCEAVMILRSRFLDARRKRRNFNKQATEILNEYFYSHLSNPYPSEEAKEELAKKCGITVSQVSNWFGNKRIRYKKNIGKFQEEANIYAAK
notes: PBX1, residues 1-308, lacking the C-terminal region; First cassette of the di-cistronic vector pGEX-6P-2RBS, with PREP1 in the second; also called C-terminal truncated PBX1; source: E. coli, purified as a complex with PREP1(1-344) or with MEIS1 (ion exchange, SEC on Superose 6)
As for B1, the binding result (with PREP1_(1-344); in experiment [1]) was “binds” in each case.

B2: GST-fused wild-type MEIS1 (natural protein, UniProt O00470 1-390, looked up)
chain: T2 sequence (looked up)
notes: MEIS1, full length, residues 1-390; Detected through GST in the ELISA; source: E. coli, purified
As for B2, the dissociation constant (Kd) in experiment [2] turned out to be 80 ± 17 nM.
